The results in this text go back to PMC4721547, “Cyclophilin40 isomerase activity is regulated by a temperature-dependent allosteric interaction with Hsp90” (Bioscience Reports, 2015).

Test [1] addresses T1, Cyclophilin 40 (human; pDEST14-6H-TEV-hCyp40) (human, UniProt Q08752 1-370).
T1 construct: Cyclophilin 40 (Cyp40, PPID), human; construct pDEST14-6H-TEV-hCyp40; Monomeric by dynamic light scattering; also called PPID; source: E. coli BL21 star (DE3), purified (IMAC, gel filtration on Superdex 200)
The experiment in a line: ITC; 500 uM SRMEEVD titrated into 7.7 uM Cyp40 in 15 x 2.5 ul aliquots; 50 mM Hepes pH 8, 100 mM sodium chloride, 1 mM DTT; 1:1 binding model; 20 °C (value told with Supplementary Figure S2). The settings on record: both partners purified.

Test [2] addresses T1, Cyclophilin 40 (human; …). The experiment in a line: ITC; 500 uM SRMEEVD titrated into 7.7 uM Cyp40 in 15 x 2.5 ul aliquots; 50 mM Hepes pH 8, 100 mM sodium chloride, 1 mM DTT; 1:1 binding model; 30 °C (highest attainable temperature). The settings on record: both partners purified. On the technique in general: ITC needs no label: the signal is the heat of the interaction.
In test [3] the target is T1, Cyclophilin 40 (human; …). In words: ITC; 500 uM SRMEEVD titrated into 7.7 uM Cyp40 in 15 x 2.5 ul aliquots; 50 mM Hepes pH 8, 100 mM sodium chloride, 1 mM DTT; 1:1 binding model; 10 °C. The settings on record: both partners purified.
Test [4] addresses Cyclophilin 40 (human; pDEST14-6H-TEV-hCyp40) (human) (UniProt Q08752).

T1 sequence (Q08752 whole entry): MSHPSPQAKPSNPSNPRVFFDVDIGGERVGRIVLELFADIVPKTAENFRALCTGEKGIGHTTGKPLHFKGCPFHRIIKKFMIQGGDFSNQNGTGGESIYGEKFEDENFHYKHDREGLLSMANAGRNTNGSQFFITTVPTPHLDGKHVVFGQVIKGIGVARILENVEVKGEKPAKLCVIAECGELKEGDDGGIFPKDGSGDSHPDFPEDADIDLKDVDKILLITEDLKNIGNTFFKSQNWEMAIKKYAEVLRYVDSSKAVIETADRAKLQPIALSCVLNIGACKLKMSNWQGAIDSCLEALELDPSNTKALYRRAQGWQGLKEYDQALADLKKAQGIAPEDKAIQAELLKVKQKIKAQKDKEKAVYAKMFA
Cyclophilin 40 (human; pDEST14-6H-TEV-hCyp40) (human), sequence (Q08752 whole entry): as above

B1: SRMEEVD peptide (Hsp90 wild-type C-terminal peptide) (peptide)
peptide: SRMEEVD
notes: also called Hsp90 peptide; Hsp90 wt
Regarding B1, the Kd is 10.7 µM in test [1], approximately 25 µM in test [2] and approximately 5 µM in test [3].

B2: GPTIEEVD peptide (Hsp70 wild-type C-terminal peptide) (peptide)
peptide: GPTIEEVD
Turning to B2, the reduction of the PPIase activity of Cyp40 (10 nM) by 250 uM peptide, substrate Suc-A-A-P-F-p-NA, 10 °C in test [4] was more than 30%.

B3: GAAAEEVD peptide (Hsp70 mutant C-terminal peptide) (peptide)
peptide: GAAAEEVD
On to B3, for which, in test [4], the reduction of the PPIase activity of Cyp40 (10 nM) by 250 uM peptide, substrate Suc-A-A-P-F-p-NA, 10 °C was more than 30%.

What is called Kd is the equilibrium constant for the complex coming apart. The low end stands for tighter binding, the high end for weaker binding.
